Laboratory results published in ChEMBL document CHEMBL2074368, “Kinetic analysis of calcein and calcein-acetoxymethylester efflux mediated by the multidrug resistance protein and P-glycoprotein” (Biochemistry, 1998).

Legend:
[1] = substrate: O=C(O)CN(CC(=O)O)Cc1cc2c(cc1O)Oc1cc(O)c(CN(CC(=O)O)CC(=O)O)cc1C21OC(=O)c2ccccc21; assay: (§1) TP_TRANSPORTER: efflux in GLC4/ADR cells; format: functional, cell-based, GLC-4/ADR
[2] = substrate: CC(=O)OCOC(=O)CN(CC(=O)OCOC(C)=O)Cc1c(OC(C)=O)ccc2c1Oc1c(ccc(OC(C)=O)c1CN(CC(=O)OCOC(C)=O)CC(=O)OCOC(C)=O)C21OC(=O)c2ccccc21; assay: as §1; format: functional, cell-based, GLC-4/ADR

B1: Multidrug resistance-associated protein 1 (Homo sapiens) (protein)
chain: MALRGFCSADGSDPLWDWNVTWNTSNPDFTKCFQNTVLVWVPCFYLWACFPFYFLYLSRHDRGYIQMTPLNKTKTALGFLLWIVCWADLFYSFWERSRGIFLAPVFLVSPTLLGITMLLATFLIQLERRKGVQSSGIMLTFWLVALVCALAILRSKIMTALKEDAQVDLFRDITFYVYFSLLLIQLVLSCFSDRSPLFSETIHDPNPCPESSASFLSRITFWWITGLIVRGYRQPLEGSDLWSLNKEDTSEQVVPVLVKNWKKECAKTRKQPVKVVYSSKDPAQPKESSKVDANEEVEALIVKSPQKEWNPSLFKVLYKTFGPYFLMSFFFKAIHDLMMFSGPQILKLLIKFVNDTKAPDWQGYFYTVLLFVTACLQTLVLHQYFHICFVSGMRIKTAVIGAVYRKALVITNSARKSSTVGEIVNLMSVDAQRFMDLATYINMIWSAPLQVILALYLLWLNLGPSVLAGVAVMVLMVPVNAVMAMKTKTYQVAHMKSKDNRIKLMNEILNGIKVLKLYAWELAFKDKVLAIRQEELKVLKKSAYLSAVGTFTWVCTPFLVALCTFAVYVTIDENNILDAQTAFVSLALFNILRFPLNILPMVISSIVQASVSLKRLRIFLSHEELEPDSIERRPVKDGGGTNSITVRNATFTWARSDPPTLNGITFSIPEGALVAVVGQVGCGKSSLLSALLAEMDKVEGHVAIKGSVAYVPQQAWIQNDSLRENILFGCQLEEPYYRSVIQACALLPDLEILPSGDRTEIGEKGVNLSGGQKQRVSLARAVYSNADIYLFDDPLSAVDAHVGKHIFENVIGPKGMLKNKTRILVTHSMSYLPQVDVIIVMSGGKISEMGSYQELLARDGAFAEFLRTYASTEQEQDAEENGVTGVSGPGKEAKQMENGMLVTDSAGKQLQRQLSSSSSYSGDISRHHNSTAELQKAEAKKEETWKLMEADKAQTGQVKLSVYWDYMKAIGLFISFLSIFLFMCNHVSALASNYWLSLWTDDPIVNGTQEHTKVRLSVYGALGISQGIAVFGYSMAVSIGGILASRCLHVDLLHSILRSPMSFFERTPSGNLVNRFSKELDTVDSMIPEVIKMFMGSLFNVIGACIVILLATPIAAIIIPPLGLIYFFVQRFYVASSRQLKRLESVSRSPVYSHFNETLLGVSVIRAFEEQERFIHQSDLKVDENQKAYYPSIVANRWLAVRLECVGNCIVLFAALFAVISRHSLSAGLVGLSVSYSLQVTTYLNWLVRMSSEMETNIVAVERLKEYSETEKEAPWQIQETAPPSSWPQVGRVEFRNYCLRYREDLDFVLRHINVTINGGEKVGIVGRTGAGKSSLTLGLFRINESAEGEIIIDGINIAKIGLHDLRFKITIIPQDPVLFSGSLRMNLDPFSQYSDEEVWTSLELAHLKDFVSALPDKLDHECAEGGENLSVGQRQLVCLARALLRKTKILVLDEATAAVDLETDDLIQSTIRTQFEDCTVLTIAHRLNTIMDYTRVIVLDKGEIQEYGAPSDLLQQRGLFYSMAKDAGLV
B1 gave a Km [1] of 268 µM and a Km [2] of 0.05 µM.
